# Reference: PMC4847155 (Biochemical Journal, 2016)
# B1: cBid: known Bax activator protein, pro-apoptotic BH3 protein, recombinant (protein, UniProt P55957 61-195, looked up)
# BH3-interacting domain death …: GNRSSHSRLGRIEADSESQEDIIRNIARHLAQVGDSMDRSIPPGLVNGLALQLRNTSRSEEDRNRDLATALEQLLQAYPRDMEKEKTMLVLALLLAKKVASHTPSLLRDVFHTTVNFINQNLRTYVRSLARNGMD
# modifications: BH3-interacting domain death agonist p15
# Biological target: Bax (Homo sapiens, UniProt Q07812)
# Assay type: biochemical
# Details: 100 nM Bax, 10 μM compound or 20 nM cBid/Bim, no membranes, DSS
# Chain of Bax (Q07812 whole entry): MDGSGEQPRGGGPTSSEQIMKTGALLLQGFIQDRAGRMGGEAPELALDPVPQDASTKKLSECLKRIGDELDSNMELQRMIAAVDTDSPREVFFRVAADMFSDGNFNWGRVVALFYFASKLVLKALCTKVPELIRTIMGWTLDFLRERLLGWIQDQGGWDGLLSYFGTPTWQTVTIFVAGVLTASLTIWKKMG
molecule,measurement,value
B1,formation of dimers and higher-order Bax oligomers in solution,no effects
